Measured values taken from PMC9050003, “N- and C-terminal regions of the small heat shock protein IbpA from Acholeplasma laidlawii competitively govern its oligomerization pattern and chaperone-like activity†” (RSC Advances, 2020).

What was measured:
[1] = target: AlIbpAΔN12C14 (Acholeplasma laidlawii); assay: SEC; Superdex 200 10/300, 0.5 ml min^−1, 1 mg ml^−1 protein, 100 μl injected; 50 mM NaCl, 50 mM KCl, 50 mM K2HPO4 pH 7.4; 30 °C; fractions as areas under the peaks; peaks also viewed by TEM
[2] = target: AlIbpAΔC14 (Acholeplasma laidlawii); assay: as above
[3] = target: AlIbpAΔN25C14 (Acholeplasma laidlawii); assay: as above
[4] = target: full-length recombinant AlIbpA (small heat shock protein IbpA from Acholeplasma laidlawii), His6-tagged (Acholeplasma laidlawii) (UniProt A9NFB2); assay: SPR; BIAcore T200; His6-AlIbpA proteins immobilised on Ni2+-loaded NTA chip (FC2, about 2000 RU); His6-TnrA20 on FC1 as control, response difference FC2 − FC1; ADH 1.0 mg ml^−1 injected at 10 μl min^−1; 10 mM Na2HPO4, 150 mM NaCl, pH 7.4; KD calculated from the binding curve slopes
[5] = target: AlIbpAΔN25 (Acholeplasma laidlawii) (UniProt A9NFB2); assay: as above
[6] = target: AlIbpAΔC14 (Acholeplasma laidlawii); assay: as above
[7] = target: AlIbpASEPΔN25 (Acholeplasma laidlawii) (UniProt A9NFB2); assay: as above
[8] = target: AlIbpASEPΔN12 (Acholeplasma laidlawii) (UniProt A9NFB2); assay: as above
[9] = target: AlIbpAN11N12 (Acholeplasma laidlawii) (UniProt A9NFB2); assay: as above
[10] = target: AlIbpAΔN12 (Acholeplasma laidlawii) (UniProt A9NFB2); assay: as above
[11] = target: the molecule itself; assay: SEC; Superdex 200 10/300, 0.5 ml min^−1, 1 mg ml^−1 protein, 100 μl injected; 50 mM NaCl, 50 mM KCl, 50 mM K2HPO4 pH 7.4; 30 °C; fractions as areas under the peaks; peaks also viewed by TEM
[12] = target: the molecule itself; assay: as above; remark: listed apart in the source

AlIbpAΔN12C14 (domain or fragment)
fraction of the protein in I peak of the elution profile [1]: 1%
fraction of the protein in II peak of the elution profile [1]: 86%

AlIbpAΔC14 (domain or fragment)
fraction of the protein in I peak of the elution profile [2]: 7%
fraction of the protein in II peak of the elution profile [2]: 86%

AlIbpAΔN25C14 (domain or fragment)
fraction of the protein in I peak of the elution profile [3]: 1%
fraction of the protein in II peak of the elution profile [3]: 50%

alcohol dehydrogenase (enzyme)
Kd [4]: 1600 nM
Kd [5]: 2200 nM
Kd [6]: 700 nM
Kd [7]: 3.2 µM
Kd [8]: 7.2 µM
Kd [9]: 500 nM
Kd [10]: 3.5 µM

B1: full-length recombinant AlIbpA (small heat shock protein IbpA from Acholeplasma laidlawii), His6-tagged (natural protein, UniProt A9NFB2 1-137, looked up)
chain: MLSLLNKNRSFFDDFFEDFNVLNPVTTSNLMRTDIKETQNGYSLSVELPGFKKEDVKVSLEDGYLTIEAHTSKNSETKDQATKYIRKERYEGTMKRSYYVGNLHLDEINGTFENGMLHIELPKETKKEPEKRYLELK
notes: small heat shock protein IbpA (AlIbpA) of Acholeplasma laidlawii PG8, full length; Legends call it AlIbpA-His6, the methods say the His6 tag is N-terminal; In solution a mixture of about 24-mer globules, fibrils and agglomerates; also called AlIbpA-His6; His6-IbpA; source: E. coli BL21(DE3), purified (Ni-NTA); also in E. coli BL21 pET-IbpA cells, cross-linked in the cells, crude cell extract; not …
fraction of the protein in I peak of the elution profile [11]: 23 ± 10.3%
fraction of the protein in II peak of the elution profile [11]: 74 ± 17.8%
stoichiometry N [12]: ~24

B2: AlIbpAN11N12 (natural protein, Acholeplasma laidlawii, UniProt A9NFB2 1-137, looked up)
chain: MLSLLNKNRSNNDDFFEDFNVLNPVTTSNLMRTDIKETQNGYSLSVELPGFKKEDVKVSLEDGYLTIEAHTSKNSETKDQATKYIRKERYEGTMKRSYYVGNLHLDEINGTFENGMLHIELPKETKKEPEKRYLELK
notes: AlIbpA of Acholeplasma laidlawii PG8 with F11F12 substituted by N11N12, complete N-terminus length kept; source: E. coli BL21(DE3), purified (Ni-NTA); not shown: His6, N-terminal, kept
fraction of the protein in I peak of the elution profile [11]: 8 ± 1.7%
fraction of the protein in II peak of the elution profile [11]: 88 ± 12.2%
stoichiometry N [12]: ~24

B3: AlIbpAΔN12 (domain or fragment, Acholeplasma laidlawii, UniProt A9NFB2 13-137, looked up)
chain: DDFFEDFNVLNPVTTSNLMRTDIKETQNGYSLSVELPGFKKEDVKVSLEDGYLTIEAHTSKNSETKDQATKYIRKERYEGTMKRSYYVGNLHLDEINGTFENGMLHIELPKETKKEPEKRYLELK
notes: AlIbpA of Acholeplasma laidlawii PG8 lacking the first 12 amino acid residues; source: E. coli BL21(DE3), purified (Ni-NTA); not shown: His6, N-terminal, kept
fraction of the protein in I peak of the elution profile [11]: 88 ± 17.1%
fraction of the protein in II peak of the elution profile [11]: 10 ± 1.1%

B4: AlIbpAΔN25 (domain or fragment, Acholeplasma laidlawii, UniProt A9NFB2 26-137, looked up)
chain: TTSNLMRTDIKETQNGYSLSVELPGFKKEDVKVSLEDGYLTIEAHTSKNSETKDQATKYIRKERYEGTMKRSYYVGNLHLDEINGTFENGMLHIELPKETKKEPEKRYLELK
notes: AlIbpA of Acholeplasma laidlawii PG8 with 25 N-terminal amino acids removed (lacks both (W/F)(D/F)PF-like motifs); source: E. coli BL21(DE3), purified (Ni-NTA); not shown: His6, N-terminal, kept
fraction of the protein in I peak of the elution profile [11]: 77 ± 21.3%
fraction of the protein in II peak of the elution profile [11]: 12 ± 2.4%

B5: AlIbpASEP (natural protein, Acholeplasma laidlawii, UniProt A9NFB2 1-137, looked up)
chain: MLSLLNKNRSFFDDFFEDFNVLNPVTTSNLMRTDIKETQNGYSLSVELPGFKKEDVKVSLEDGYLTIEAHTSKNSETKDQATKYIRKERYEGTMKRSYYVGNLHLDEINGTFENGMLHIELPKETKKEPEKRYSEPK
notes: AlIbpA of Acholeplasma laidlawii PG8 with the C-terminal LEL motif substituted by SEP (L134 to S134, L136 to P136), length of the C-terminus kept; source: E. coli BL21(DE3), purified (Ni-NTA); not shown: His6, N-terminal, kept
fraction of the protein in I peak of the elution profile [11]: 18 ± 4.4%
fraction of the protein in II peak of the elution profile [11]: 56 ± 7.8%

B6: AlIbpASEPΔN12 (domain or fragment, Acholeplasma laidlawii, UniProt A9NFB2 13-137, looked up)
chain: DDFFEDFNVLNPVTTSNLMRTDIKETQNGYSLSVELPGFKKEDVKVSLEDGYLTIEAHTSKNSETKDQATKYIRKERYEGTMKRSYYVGNLHLDEINGTFENGMLHIELPKETKKEPEKRYSEPK
notes: AlIbpA of Acholeplasma laidlawii PG8 lacking 12 N-terminal amino acids and with LEL substituted by SEP (L134S, L136P); source: E. coli BL21(DE3), purified (Ni-NTA); not shown: His6, N-terminal, kept
fraction of the protein in I peak of the elution profile [11]: 2 ± 0.8%
fraction of the protein in II peak of the elution profile [11]: 59 ± 10.1%

B7: AlIbpASEPΔN25 (domain or fragment, Acholeplasma laidlawii, UniProt A9NFB2 26-137, looked up)
chain: TTSNLMRTDIKETQNGYSLSVELPGFKKEDVKVSLEDGYLTIEAHTSKNSETKDQATKYIRKERYEGTMKRSYYVGNLHLDEINGTFENGMLHIELPKETKKEPEKRYSEPK
notes: AlIbpA of Acholeplasma laidlawii PG8 lacking 25 N-terminal amino acids and with LEL substituted by SEP (L134S, L136P); source: E. coli BL21(DE3), purified (Ni-NTA); not shown: His6, N-terminal, kept
fraction of the protein in I peak of the elution profile [11]: 69 ± 15.5%
fraction of the protein in II peak of the elution profile [11]: 23 ± 3.2%
